Consider 1 substance from patent US20120058906A1.

The target of assay [1] is rHuman Erythropoietin R/Fc Chimera, CF (R&D Systems Cat#963-ER) (human) (UniProt P19235). Kind of assay: ECL (MSD multi-spot), Fab 170 nM; blank 262.
Assay [2] deals with rHuman ErbB2/Fc Chimera, CF (R&D Systems Cat#1129-ER) (human) (UniProt P04626). The assay is described as follows: ECL (MSD multi-spot), Fab 170 nM; blank 262.
In assay [3] the target is rHuman IGF-1 sR (IGF-1 sR), CF (R&D Systems Cat#391-GR) (human) (UniProt P08069). The assay is described as follows: ECL (MSD multi-spot), Fab 170 nM; blank 262.
The target of assay [4] is rHuman HGF R/c-MET/Fc Chimera, CF (R&D Systems Cat#358-MT/CF) (human) (UniProt P08581). Kind of assay: ECL (MSD multi-spot), Fab 170 nM; blank 262.
Assay [5] concerns the target rHuman Notch-1/Fc Chimera, CF (R&D Systems Cat#3647-TK) (human) (UniProt P46531). The assay is described as follows: ECL (MSD multi-spot), Fab 170 nM; blank 262.
Assay [6] addresses rHuman CD44/Fc Chimera, CF (R&D Systems Cat#3660-CD) (human) (UniProt P16070). Kind of assay: ECL (MSD multi-spot), Fab 170 nM; blank 262.
The target in assay [7] is rHuman EGF R/Fc Chimera, CF (R&D Systems Cat#344-ER) (human) (UniProt P00533). The assay is described as follows: ECL (MSD multi-spot), Fab 170 nM; blank 262.
In assay [8] the target is rHuman P-Cadherin/Fc Chimera, CF (R&D Systems Cat#861-PC) (human) (UniProt P22223). Kind of assay: ECL (MSD multi-spot), Fab 170 nM; blank 262.
The target in assay [9] is rHuman ErbB2/Fc Chimera, CF (R&D Systems Cat#1129-ER) (human) (UniProt P04626). The assay is described as follows: ECL (MSD multi-spot), Fab 85.0 nM; blank 292.
Assay [10] has as its target rHuman CD44/Fc Chimera, CF (R&D Systems Cat#3660-CD) (human) (UniProt P16070). Kind of assay: ECL (MSD multi-spot), Fab 85.0 nM; blank 292.

Sequence of rHuman Erythropoietin R/Fc Chimera, CF (R&D Systems Cat#963-ER) (human) (P19235 25-250, change not shown): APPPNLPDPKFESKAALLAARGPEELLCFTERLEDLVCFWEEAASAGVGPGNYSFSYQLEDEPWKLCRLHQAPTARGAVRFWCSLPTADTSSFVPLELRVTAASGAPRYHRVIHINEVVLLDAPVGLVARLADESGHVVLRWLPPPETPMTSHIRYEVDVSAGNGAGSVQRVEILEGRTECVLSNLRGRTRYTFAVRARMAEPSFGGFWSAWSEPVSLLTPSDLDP

Regarding “Fab VH4-34_IGHD7-27*01_IGHJ4*01 & V4-6_IGLJ4*01”, the ECL signal was determined as 790 ECL signal in assay [1]; 964 ECL signal in [2]; 832 ECL signal in [3]; 757 ECL signal in assay [4]; 816 ECL signal in [5]; 660 ECL signal in assay [6]. Besides, the ECL signal in assay [7] amounted to 826 ECL signal; in assay [8], 744 ECL signal; in assay [9], 844 ECL signal; in assay [10], 693 ECL signal.
